This passage reports abundance fitness results from the Human Domainome abundance scans (Beltran et al. 2025).

Sequences and labels used below:
B1: RNA-binding E3 ubiquitin-protein ligase MEX3C, residues 325 to 391; numbered along this chain, Q5U5Q3 (parent)
chain: GQTTVQVRVPYRVVGLVVGPKGATIKRIQQQTHTYIVTPSRDKEPVFEVTGMPENVDRAREEIEMHI

± gives the uncertainty stated by the source.

Variants of B1 are the subject of the data set. The experiment in a line: abundance fitness (aPCA) (normalised: wild type 0, dead -1); higher = more abundant; growth selection in yeast, the domain comes from the species named. Particulars: Homo sapiens.
Regarding GQTTVQVRVPYRVVGLVVGPKGATIKRIQQQTHTYIVTPSRDKMPVFEVTGMPENVDRAREEIEMHI [E44M], the abundance fitness was -0.687 ± 0.25.

GQTTVQVRVPYRVVGLVVGPKGATIKRIQQQTHTYIVTPSRDKKPVFEVTGMPENVDRAREEIEMHI [E44K]: the abundance fitness was -0.697 ± 0.17.

Turning to GQTTVQVRVPYRVVGLVVGPKGATIKRIQQQTHTYIVTPSRDKGPVFEVTGMPENVDRAREEIEMHI [E44G], the abundance fitness was -0.492 ± 0.059.

For GQTTVQVRVPYRVVGLVVGPKGATIKRIQQQTHTYIVTPSRDKLPVFEVTGMPENVDRAREEIEMHI [E44L], the abundance fitness is -0.582 ± 0.094.

Take GQTTVQVRVPYRVVGLVVGPKGATIKRIQQQTHTYIVTPSRDKNPVFEVTGMPENVDRAREEIEMHI [E44N]: the abundance fitness is -0.222 ± 0.17.

For the variant GQTTVQVRVPYRVVGLVVGPKGATIKRIQQQTHTYIVTPSRDKCPVFEVTGMPENVDRAREEIEMHI [E44C], the abundance fitness was -0.834 ± 0.26.

Turning to GQTTVQVRVPYRVVGLVVGPKGATIKRIQQQTHTYIVTPSRDKFPVFEVTGMPENVDRAREEIEMHI [E44F], the abundance fitness is -0.906 ± 0.31.

Consider GQTTVQVRVPYRVVGLVVGPKGATIKRIQQQTHTYIVTPSRDKWPVFEVTGMPENVDRAREEIEMHI [E44W], for which the abundance fitness was -0.695 ± 0.11.

For the variant GQTTVQVRVPYRVVGLVVGPKGATIKRIQQQTHTYIVTPSRDKVPVFEVTGMPENVDRAREEIEMHI [E44V], the abundance fitness was -0.472 ± 0.08.

For GQTTVQVRVPYRVVGLVVGPKGATIKRIQQQTHTYIVTPSRDKRPVFEVTGMPENVDRAREEIEMHI [E44R], the abundance fitness was -0.719 ± 0.1.

Take GQTTVQVRVPYRVVGLVVGPKGATIKRIQQQTHTYIVTPSRDKAPVFEVTGMPENVDRAREEIEMHI [E44A]: the abundance fitness was -0.177 ± 0.068.

On to GQTTVQVRVPYRVVGLVVGPKGATIKRIQQQTHTYIVTPSRDKQPVFEVTGMPENVDRAREEIEMHI [E44Q], for which the abundance fitness is -0.305 ± 0.23.

For GQTTVQVRVPYRVVGLVVGPKGATIKRIQQQTHTYIVTPSRDKSPVFEVTGMPENVDRAREEIEMHI [E44S], the abundance fitness was -0.459 ± 0.16.

For GQTTVQVRVPYRVVGLVVGPKGATIKRIQQQTHTYIVTPSRDKPPVFEVTGMPENVDRAREEIEMHI [E44P], the abundance fitness is -0.374 ± 0.18.

With GQTTVQVRVPYRVVGLVVGPKGATIKRIQQQTHTYIVTPSRDKTPVFEVTGMPENVDRAREEIEMHI [E44T], the abundance fitness was -0.798 ± 0.37.

For GQTTVQVRVPYRVVGLVVGPKGATIKRIQQQTHTYIVTPSRDKEPVREVTGMPENVDRAREEIEMHI [F47R], the abundance fitness was -0.706 ± 0.074.

Take GQTTVQVRVPYRVVGLVVGPKGATIKRIQQQTHTYIVTPSRDKEPVSEVTGMPENVDRAREEIEMHI [F47S]: the abundance fitness is -0.835 ± 0.14.

For GQTTVQVRVPYRVVGLVVGPKGATIKRIQQQTHTYIVTPSRDKEPVEEVTGMPENVDRAREEIEMHI [F47E], the abundance fitness is -0.658 ± 0.11.

For the variant GQTTVQVRVPYRVVGLVVGPKGATIKRIQQQTHTYIVTPSRDKEPVDEVTGMPENVDRAREEIEMHI [F47D], the abundance fitness was -1.01 ± 0.35.

On to GQTTVQVRVPYRVVGLVVGPKGATIKRIQQQTHTYIVTPSRDKEPVPEVTGMPENVDRAREEIEMHI [F47P], for which the abundance fitness is -0.974 ± 0.32.

GQTTVQVRVPYRVVGLVVGPKGATIKRIQQQTHTYIVTPSRDKEPVTEVTGMPENVDRAREEIEMHI [F47T]: the abundance fitness was -0.511 ± 0.15.

For the variant GQTTVQVRVPYRVVGLVVGPKGATIKRIQQQTHTYIVTPSRDKEPVVEVTGMPENVDRAREEIEMHI [F47V], the abundance fitness is -0.792 ± 0.11.

For GQTTVQVRVPYRVVGLVVGPKGATIKRIQQQTHTYIVTPSRDKEPVAEVTGMPENVDRAREEIEMHI [F47A], the abundance fitness is -0.889 ± 0.19.

For the variant GQTTVQVRVPYRVVGLVVGPKGATIKRIQQQTHTYIVTPSRDKEPVCEVTGMPENVDRAREEIEMHI [F47C], the abundance fitness is -0.411 ± 0.13.

For GQTTVQVRVPYRVVGLVVGPKGATIKRIQQQTHTYIVTPSRDKEPVQEVTGMPENVDRAREEIEMHI [F47Q], the abundance fitness is -0.648 ± 0.19.

For GQTTVQVRVPYRVVGLVVGPKGATIKRIQQQTHTYIVTPSRDKEPVIEVTGMPENVDRAREEIEMHI [F47I], the abundance fitness was -0.853 ± 0.35.

Turning to GQTTVQVRVPYRVVGLVVGPKGATIKRIQQQTHTYIVTPSRDKEPVGEVTGMPENVDRAREEIEMHI [F47G], the abundance fitness is -0.661 ± 0.07.

As to GQTTVQVRVPYRVVGLVVGPKGATIKRIQQQTHTYIVTPSRDKEPVYEVTGMPENVDRAREEIEMHI [F47Y], the abundance fitness was -0.677 ± 0.25.

For GQTTVQVRVPYRVVGLVVGPKGATIKRIQQQTHTYIVTPSRDKEPVWEVTGMPENVDRAREEIEMHI [F47W], the abundance fitness was -0.412 ± 0.093.

On to GQTTVQVRVPYRVVGLVVGPKGATIKRIQQQTHTYIVTPSRDKEPVNEVTGMPENVDRAREEIEMHI [F47N], for which the abundance fitness is -0.442 ± 0.22.

GQTTVQVRVPYRVVGLVVGPKGATIKRIQQQTHTYIVTPSRDKEPVMEVTGMPENVDRAREEIEMHI [F47M]: the abundance fitness is -0.808 ± 0.18.

Regarding GQTTVQVRVPYRVVGLVVGPKGATIKRIQQQTHTYIVTPSRDKEIVFEVTGMPENVDRAREEIEMHI [P45I], the abundance fitness was -0.622 ± 0.29.

For GQTTVQVRVPYRVVGLVVGPKGATIKRIQQQTHTYIVTPSRDKEAVFEVTGMPENVDRAREEIEMHI [P45A], the abundance fitness was -0.422 ± 0.083.

Consider GQTTVQVRVPYRVVGLVVGPKGATIKRIQQQTHTYIVTPSRDKESVFEVTGMPENVDRAREEIEMHI [P45S], for which the abundance fitness is -0.387 ± 0.072.

As for GQTTVQVRVPYRVVGLVVGPKGATIKRIQQQTHTYIVTPSRDKENVFEVTGMPENVDRAREEIEMHI [P45N], the abundance fitness is -0.821 ± 0.27.

GQTTVQVRVPYRVVGLVVGPKGATIKRIQQQTHTYIVTPSRDKERVFEVTGMPENVDRAREEIEMHI [P45R]: the abundance fitness is -0.564 ± 0.076.

With GQTTVQVRVPYRVVGLVVGPKGATIKRIQQQTHTYIVTPSRDKEGVFEVTGMPENVDRAREEIEMHI [P45G], the abundance fitness was -0.434 ± 0.063.

In the case of GQTTVQVRVPYRVVGLVVGPKGATIKRIQQQTHTYIVTPSRDKEDVFEVTGMPENVDRAREEIEMHI [P45D], the abundance fitness is -0.677 ± 0.12.

Regarding GQTTVQVRVPYRVVGLVVGPKGATIKRIQQQTHTYIVTPSRDKEKVFEVTGMPENVDRAREEIEMHI [P45K], the abundance fitness was -0.42 ± 0.18.

Take GQTTVQVRVPYRVVGLVVGPKGATIKRIQQQTHTYIVTPSRDKEFVFEVTGMPENVDRAREEIEMHI [P45F]: the abundance fitness was -0.417 ± 0.13.
